Experimental data taken from patent US20220204643A1 (published 2022).

Legend:
[1] = biological target: T1, nudix hydrolase 22, transcript variant 2 (human, UniProt Q9BRQ3 1-303)
T1 construct: also called NUDT22
T1 chain: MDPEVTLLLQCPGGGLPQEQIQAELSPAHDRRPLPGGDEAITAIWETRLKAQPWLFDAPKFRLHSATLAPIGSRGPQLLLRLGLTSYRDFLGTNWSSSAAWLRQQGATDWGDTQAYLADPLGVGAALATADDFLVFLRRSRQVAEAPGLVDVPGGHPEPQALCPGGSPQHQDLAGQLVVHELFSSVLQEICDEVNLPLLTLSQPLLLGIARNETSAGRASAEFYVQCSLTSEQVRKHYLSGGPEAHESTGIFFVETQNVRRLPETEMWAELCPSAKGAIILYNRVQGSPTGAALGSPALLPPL

[2] = biological target: T2, oxidation resistance 1, transcript variant 1 (human, UniProt Q8N573 90-874, limits assumed)
T2 construct: also called OXR1
T2 sequence: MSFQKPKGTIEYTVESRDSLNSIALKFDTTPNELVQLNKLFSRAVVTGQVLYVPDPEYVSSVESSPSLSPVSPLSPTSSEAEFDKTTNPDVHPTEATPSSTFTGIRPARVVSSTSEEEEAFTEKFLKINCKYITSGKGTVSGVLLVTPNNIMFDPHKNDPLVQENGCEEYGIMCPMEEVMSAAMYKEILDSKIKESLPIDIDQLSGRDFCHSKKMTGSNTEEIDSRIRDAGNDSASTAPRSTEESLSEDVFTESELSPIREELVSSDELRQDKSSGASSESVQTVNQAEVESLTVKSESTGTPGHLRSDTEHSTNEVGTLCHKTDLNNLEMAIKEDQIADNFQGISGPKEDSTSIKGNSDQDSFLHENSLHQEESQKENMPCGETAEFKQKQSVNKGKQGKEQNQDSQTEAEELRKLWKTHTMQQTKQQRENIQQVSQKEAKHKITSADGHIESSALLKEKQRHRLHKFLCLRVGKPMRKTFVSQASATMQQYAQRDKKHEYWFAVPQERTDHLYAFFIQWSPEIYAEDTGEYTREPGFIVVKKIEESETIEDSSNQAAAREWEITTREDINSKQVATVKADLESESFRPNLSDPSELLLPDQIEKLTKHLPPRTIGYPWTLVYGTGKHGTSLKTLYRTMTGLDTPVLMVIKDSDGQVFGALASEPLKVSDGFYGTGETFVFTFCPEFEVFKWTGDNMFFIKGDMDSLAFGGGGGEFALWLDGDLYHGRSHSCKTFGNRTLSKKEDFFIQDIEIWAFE

[3] = biological target: T3, sorting nexin 1, transcript variant 1 (human, UniProt Q13596 1-522)
T3 construct: also called SNX1

[4] = biological target: T4, grancalcin, transcript variant 4 (human, UniProt P28676 1-217)
T4 construct: also called GCA
T4 sequence: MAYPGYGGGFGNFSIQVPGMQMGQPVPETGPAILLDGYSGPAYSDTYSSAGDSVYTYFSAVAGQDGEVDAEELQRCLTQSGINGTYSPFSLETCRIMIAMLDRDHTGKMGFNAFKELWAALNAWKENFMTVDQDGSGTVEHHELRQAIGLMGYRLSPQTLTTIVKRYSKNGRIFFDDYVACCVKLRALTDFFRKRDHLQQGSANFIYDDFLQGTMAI

[5] = biological target: T5, endosome associated trafficking regulator 1, transcript variant 2 (human, UniProt Q96C92 59-435); assay: protein array
T5 construct: on protein array; also called SDCCAG3
T5 chain: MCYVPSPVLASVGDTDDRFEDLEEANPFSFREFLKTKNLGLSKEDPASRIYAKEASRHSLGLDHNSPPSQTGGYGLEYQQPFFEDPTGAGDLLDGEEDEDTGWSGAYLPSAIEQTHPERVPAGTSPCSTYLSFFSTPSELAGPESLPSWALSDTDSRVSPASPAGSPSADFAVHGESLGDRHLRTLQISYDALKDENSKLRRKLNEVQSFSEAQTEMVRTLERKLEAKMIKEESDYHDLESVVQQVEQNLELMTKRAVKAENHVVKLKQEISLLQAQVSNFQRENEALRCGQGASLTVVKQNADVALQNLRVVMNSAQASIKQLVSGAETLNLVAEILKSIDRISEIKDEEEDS

[6] = biological target: T6, charged multivesicular body protein 4B (human, UniProt Q9H444 2-224); assay: protein array
T6 construct: on protein array; also called CHMP4B
T6 sequence: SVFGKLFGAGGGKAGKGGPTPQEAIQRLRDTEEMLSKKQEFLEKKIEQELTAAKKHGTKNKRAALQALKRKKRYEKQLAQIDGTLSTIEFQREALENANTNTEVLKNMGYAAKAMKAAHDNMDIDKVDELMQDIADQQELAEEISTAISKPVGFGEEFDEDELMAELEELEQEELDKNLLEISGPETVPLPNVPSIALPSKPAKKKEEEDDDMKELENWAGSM

[7] = biological target: CRK like proto-oncogene, adaptor protein, transcript variant 1 (human, UniProt P46109 1-303)
[8] = biological target: T7, Vezatin, adherens junctions transmembrane protein (human, UniProt Q9HBM0 56-779 at identity 0.99), limits assumed)
T7 construct: also called VEZT
T7 chain: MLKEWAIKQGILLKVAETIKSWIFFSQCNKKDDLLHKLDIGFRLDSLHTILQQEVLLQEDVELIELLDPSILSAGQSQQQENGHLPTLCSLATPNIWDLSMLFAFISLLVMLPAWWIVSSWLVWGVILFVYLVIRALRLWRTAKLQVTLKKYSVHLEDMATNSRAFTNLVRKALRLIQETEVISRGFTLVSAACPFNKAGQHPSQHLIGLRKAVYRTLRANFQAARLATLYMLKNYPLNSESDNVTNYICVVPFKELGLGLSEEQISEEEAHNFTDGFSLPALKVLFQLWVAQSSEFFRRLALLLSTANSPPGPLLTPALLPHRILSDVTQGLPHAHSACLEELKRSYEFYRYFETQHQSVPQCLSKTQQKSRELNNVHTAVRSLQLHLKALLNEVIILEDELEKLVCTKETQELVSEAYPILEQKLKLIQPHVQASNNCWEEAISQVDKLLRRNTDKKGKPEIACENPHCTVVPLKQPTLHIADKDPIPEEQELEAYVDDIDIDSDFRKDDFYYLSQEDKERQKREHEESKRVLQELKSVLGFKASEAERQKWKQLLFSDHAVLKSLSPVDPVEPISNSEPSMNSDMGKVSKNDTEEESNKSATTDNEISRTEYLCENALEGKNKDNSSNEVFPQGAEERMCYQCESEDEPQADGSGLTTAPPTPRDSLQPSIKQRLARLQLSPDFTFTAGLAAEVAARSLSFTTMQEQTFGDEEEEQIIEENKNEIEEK

DEAD-box helicase 53 = biological target: T8, DEAD-box helicase 53 (human, UniProt Q86TM3 1-631)
T8 construct: also called DDX53

tubulin gamma 1 = biological target: T9, tubulin gamma 1 (human, UniProt P23258 1-451)
T9 construct: also called TUBG1

F-box protein 2 = biological target: T10, F-box protein 2 (human, UniProt Q9UK22 1-296)
T10 construct: also called FBXO2
T10 sequence: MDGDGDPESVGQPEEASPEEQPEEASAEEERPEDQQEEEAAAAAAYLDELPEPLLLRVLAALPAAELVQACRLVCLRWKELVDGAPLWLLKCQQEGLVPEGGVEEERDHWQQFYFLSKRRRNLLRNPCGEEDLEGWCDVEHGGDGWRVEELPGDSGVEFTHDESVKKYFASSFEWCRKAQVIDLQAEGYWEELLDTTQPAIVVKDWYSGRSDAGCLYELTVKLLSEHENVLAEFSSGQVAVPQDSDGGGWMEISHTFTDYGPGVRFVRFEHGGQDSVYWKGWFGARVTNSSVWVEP

[9] = biological target: T11, Rna polymerase iii subunit g (human, UniProt O15318 1-223)
T11 construct: also called POLR3G
T11 sequence: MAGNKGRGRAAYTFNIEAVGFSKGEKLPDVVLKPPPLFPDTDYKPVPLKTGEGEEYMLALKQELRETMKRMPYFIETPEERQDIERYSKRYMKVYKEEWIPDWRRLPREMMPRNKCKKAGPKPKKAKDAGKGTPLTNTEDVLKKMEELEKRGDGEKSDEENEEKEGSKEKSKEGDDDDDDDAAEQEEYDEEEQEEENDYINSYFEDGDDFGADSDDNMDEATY

T9 sequence (P23258 whole entry): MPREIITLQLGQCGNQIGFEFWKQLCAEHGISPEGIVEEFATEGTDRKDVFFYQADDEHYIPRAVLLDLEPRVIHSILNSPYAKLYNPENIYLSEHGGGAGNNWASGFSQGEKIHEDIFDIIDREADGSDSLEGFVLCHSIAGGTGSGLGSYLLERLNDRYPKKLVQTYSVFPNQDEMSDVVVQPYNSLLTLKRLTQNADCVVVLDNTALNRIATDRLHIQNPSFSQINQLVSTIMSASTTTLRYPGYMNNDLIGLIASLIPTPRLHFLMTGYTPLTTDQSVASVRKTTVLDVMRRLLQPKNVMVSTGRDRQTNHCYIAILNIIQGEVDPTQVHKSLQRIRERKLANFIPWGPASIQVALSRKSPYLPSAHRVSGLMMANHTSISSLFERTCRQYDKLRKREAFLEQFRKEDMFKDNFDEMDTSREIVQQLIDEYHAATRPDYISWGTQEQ
T8 sequence (Q86TM3 other isoform, or with tags, fused parts or gaps limits assumed): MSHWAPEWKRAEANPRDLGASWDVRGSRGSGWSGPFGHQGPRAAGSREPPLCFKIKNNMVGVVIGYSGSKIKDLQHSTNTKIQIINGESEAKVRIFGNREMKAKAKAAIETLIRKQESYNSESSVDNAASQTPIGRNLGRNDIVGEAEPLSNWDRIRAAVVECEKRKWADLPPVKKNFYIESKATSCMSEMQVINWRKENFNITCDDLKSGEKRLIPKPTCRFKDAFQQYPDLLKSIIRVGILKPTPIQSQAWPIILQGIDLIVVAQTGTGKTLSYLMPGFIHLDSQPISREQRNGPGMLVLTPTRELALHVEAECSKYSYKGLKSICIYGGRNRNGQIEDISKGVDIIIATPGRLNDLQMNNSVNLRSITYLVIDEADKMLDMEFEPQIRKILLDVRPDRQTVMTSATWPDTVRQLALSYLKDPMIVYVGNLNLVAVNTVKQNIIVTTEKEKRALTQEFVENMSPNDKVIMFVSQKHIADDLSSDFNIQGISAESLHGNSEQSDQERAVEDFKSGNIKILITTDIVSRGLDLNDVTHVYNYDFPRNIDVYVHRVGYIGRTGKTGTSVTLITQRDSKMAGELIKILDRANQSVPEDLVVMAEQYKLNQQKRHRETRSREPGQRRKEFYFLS
T3 sequence (Q13596 whole entry, change not shown): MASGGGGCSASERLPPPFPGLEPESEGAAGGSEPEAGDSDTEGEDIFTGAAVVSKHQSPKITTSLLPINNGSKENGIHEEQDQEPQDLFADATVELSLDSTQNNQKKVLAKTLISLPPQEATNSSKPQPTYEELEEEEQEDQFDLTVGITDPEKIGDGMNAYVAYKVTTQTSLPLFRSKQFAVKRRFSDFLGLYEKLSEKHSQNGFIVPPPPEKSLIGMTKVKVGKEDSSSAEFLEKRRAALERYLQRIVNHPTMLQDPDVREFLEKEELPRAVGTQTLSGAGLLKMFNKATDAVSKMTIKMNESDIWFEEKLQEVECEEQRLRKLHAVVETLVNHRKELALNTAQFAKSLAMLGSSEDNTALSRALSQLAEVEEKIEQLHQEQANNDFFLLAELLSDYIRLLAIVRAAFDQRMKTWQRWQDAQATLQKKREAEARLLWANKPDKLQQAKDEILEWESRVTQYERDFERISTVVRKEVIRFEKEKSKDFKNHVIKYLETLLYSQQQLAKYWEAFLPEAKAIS
Sequence of CRK like proto-oncogene, adaptor protein, transcript variant 1 (P46109 whole entry, change not shown): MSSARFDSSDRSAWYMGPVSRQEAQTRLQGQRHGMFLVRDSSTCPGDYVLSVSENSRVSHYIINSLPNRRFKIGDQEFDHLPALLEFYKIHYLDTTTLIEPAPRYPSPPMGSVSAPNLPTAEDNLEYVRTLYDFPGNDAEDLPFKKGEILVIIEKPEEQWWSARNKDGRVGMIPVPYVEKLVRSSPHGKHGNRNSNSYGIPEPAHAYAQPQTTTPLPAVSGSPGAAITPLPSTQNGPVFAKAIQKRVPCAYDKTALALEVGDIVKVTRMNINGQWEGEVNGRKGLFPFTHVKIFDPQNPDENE

B1: TOVA1007 (antibody, V domains shown)
VH: PVQLQESGPGLVNPSQTLSLTCTVSGGSISSGGYCWSWVRQHPGKGLEWIGCIYYIGTTYYMRSLKSRLIISIDTSKNQFSLKLTSVTAADSAVYYCARGGELLGGFGYSGMDVWGQGTTVTVSS
VL: not shown
[1]
  binding result: binds

B2: TPRO1001 (antibody, V domains shown)
VH: EVQLVQSGAEVKKPGESLRISCKGSGYSFTSFWISWVRQMPGKGLEWMGRIDPSDSYTNYSPSFQGHVTISADKSISTAFLQWSSLKASDTAMYYCARHQQKYSPISPLDYWGQGTLVTVSS
VL: QSALTQPASVSGSPGQSITISCTGTSSDVGGYNYVSWYQQHPGKAPKLMIYDVSNRPSGVSNRFSGSKSGNTASLTISGLQAEDEADYYCSSYTSSSSLVFGGGTKVTVLG
[2]
  binding result: binds

B3: TPAN1004 (antibody, V domains shown)
VH: QIQLVQSGAEVKKPGASVKVSCKTSGYTFTHYGVAWVRQAPGQGPEWMGWISPYNGNIEYGQKFQGRVTMTTDTSTNTAYMELRSLRYDDTAVYYCARDLDEINSSWLDPWGQGTLIIVSP
VL: EIVLTQSPATLSLSPGERATLSCRASQSVSSNYLAWYQQKPGQAPRLLIHGASSRATGFPDRFSGSGSGTDFTLTINRLEPEDFAVYYCQQYGTSPQTFGQGTKVEIKR
[3]
  binding result: binds

B4: TPAN1001 (antibody, V domains shown)
VH: QVQLVQSGAEVKKPGSSVKVSCKASRGTFSNHAVSWVRQAPGQGLEWVGGIIPVFGPPNYAQKFRGRVTITADRSTNTAYMELNSLRSEDTAVYYCARTQWGTDVEATNPYYYFMDVWGKGTTVTVSS
VL: EIVLTQSPGTLSLSPGHRATLSCRASQDVASTYLAWYQQKPGQAPRLLIYGASSRATGIPDRFSGSGSGTDFTLTISRLEPEDFAVFYCQYYGGSPGFTFGPGTKVDFKR
[4]
  binding result: binds

B5: TBRE1034 (antibody, V domains shown)
VH: QVQLVESGGGLVEPGGSLRLSCAASGFTFSDYYMSWIRQAPGKRLEWISHMSSGGNRRHYADSVRGRFTISRDNAKNSLYLQMNSMRADDTAVYYCARDKRSGMTSDRRIDYWGQGTRVTVSS
VL: DIQMTQSPSSLSASVGDRITITCRASQSVGTYLSWFQQKPGKAPKLLIYAASSLQSGVPSRFSGSGSGTDFTLTISSLQPEDFATYFCQQSYSVPPWTFGQGTKVEIKR
notes: VH/VL only
[5]
  binding result: binds
[6]
  binding result: binds

B6: TPAN1006 (antibody, V domains shown)
VH: QVQLVQSGAEVKKPGASVKLSCKPSGYTFSSYYIHWLRQAPGQGLEWMGIINPSGGYTSSAQKFQGRVTMTRDTSTSTIYMELSSLRAEDTAVYYCARRGEVGTMVRVFRKPFDYWGQGTLVTVSS
VL: QSVLTQPPSVSGAPGQRVTISCTGSSSNIGAQYDVHWYKVIPGTAPKLLIYGNDNRPSGVPDRFSGSKSGTSASLAITGLQSEDEADYYCQSNDISLSGSVVFGGGTKLTVLG
[7]
  binding result: binds

B7: TOVA1005 (antibody, V domains shown)
VH: QITLKESGPTLVKPTQTLTLTCTFSGFSLSTNGVGVGWIRQPPGKALEWLALINWDDDKRYSPSLKSRLTITKDTSKNQVVLTMTNLDPVDTATYYCVHARDDYGDSAWSTGPVWGQGTLVTVSS
VL: DFLLTQPHSVSESPGKTVTISCTRSSGSIASNYVQWYQQRPGSSPSTVIYEDHQRPSGVPGRFSGSIDSSSNSASLTISGLKTEDEADYFCQSSDSNNHVVFGGGTKLTVLG
[8]
  binding result: binds
DEAD-box helicase 53
  binding result: binds

B8: TPAN1007 (antibody, V domains shown)
VH: PVQLVQSGAEVKKPGESLKISCQGSGYNFSRYWIGWVRQMPGKGLEWMGVVFPGDSDIRYSLSFQGHITIYADNSISTAYLQWSSLKASDTAIYYCATTSTMPMPTRGRDWFDPWGQGTLVTVSS
VL: PSVLTQPPSVSGAPGQRVTISCTGSSSNIGAGYDVHWYQQLPGTAPKLLIYANTNRPSGVPDRFSGSKSGTSASLAITGLQAEDEADYYCQSYDNSLSGGVFGGGTKLTVLG
Tubulin gamma 1
  binding result: binds
F-box protein 2
  binding result: binds

B9: TPAN1003 (antibody, V domains shown)
VH: QVQLVQSGAEVKKPGASVKISCQAFGYNFIDNAIHWVRQAPGQRPEWMGWINAGNGNTRYSQNFQGRVTITKVTSASTAYMEMSRLKSEDTAVYFCARSSKWTDWHFDYWGQGTLVTVSS
VL: EIVLTQSPGTLSLSPGETATLSCRASQSVANNYLAWHQQKPGQAPRLLIYGASKRAAGIPDRFSGSGSGTEFTLTISRLEPEDCAVYYCQEYVKSPGFAFGPGTRVDIKR
[9]
  binding result: binds
